Data from the Immune Epitope Database (IEDB).

The sequences below were run against HLA-A*02:01 (assay: IEDB peptide-MHC binding, purified MHC/competitive/radioactivity; ≥ and ≤ were set here for values at or beyond the usual limits of such assays). Conditions: source organism: Hepacivirus hominis.

Sequence | IC50 [nM]
VLAALAAYCL | 100

Each sequence was assayed against HLA-A*11:01 in the same assay as above. Conditions: source organism: Hepacivirus hominis.

Sequence | IC50 [nM]
SVPAEILRK | 13

Each sequence was assayed against HLA-A*03:01 in the same assay as above. Conditions: source organism: Hepacivirus hominis.

Sequence | IC50 [nM]
AVCTRGVAK | 385
HLHAPTGSGK | 17
HLIFCHSKK | 400
HLIFCHSKKK | 385
RLLAPITAY | 4
TLHGPTPLLY | 112
WMNSTGFTK | 189
